Patent publication US7998940B2, “Aptamers to von Willebrand factor and their use as thrombotic disease therapeutics” (Archemix Corp., priority 2004, dated 2011)
Read-outs that look alike come from different tables or passages of the source. Oligonucleotides are written 5' to 3', each unit as a sugar letter and its base; * is a phosphorothioate linkage, no mark a phosphodiester; rarer units and linkages stand in square brackets, end groups in braces. Plain capitals give the bases only. d = 2'-deoxy (DNA); r = 2'-OH (RNA); f = 2'-fluoro

How the values were obtained:
[1] = test system: full length human vWF (SEQ ID NO 7); experiment: dot blot KD determination and extent of binding, full length human vWF; conditions: rRdY minimers; 8 point titration 0-300 nM; read-out: Full length human vWF KD;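 further: dot blot binding of aptamers to full length human vWF across a protein titration, incubated 30 minutes at room temperature in 1x DPBS with BSA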
[2] = test system: full length human vWF binding to lyophilized platelets; experiment: Full length human von Willebrand Factor platelet binding assay (FACS); assay type: cell-based; conditions: 5 nM full length human vWF, lyophilized platelets, botrocetin; for Inhibition of full length hVWF binding in FACS assay, IC50 range: both bounds in nM
Procedure: The amount of vWF bound to fixed platelets can be measured with an antibody to vWF. The fluorescence signal from bound antibody incubated with a fluorescein conjugated secondary antibody is then detected and quantified by flow cytometry. The ability of an aptamer of the invention to block vWF binding to platelets is correlated with a reduction in fluorescence signal.
Aptamer potency to block human vWF binding to lyophilized platelets was assessed by flow cytometric analysis. Titrations of aptamers (0 nM, 0.1 nM to 1000 nM) were pre-incubated briefly with 5 nM of full length human vWF in FACS buffer (PBS plus 0.5% bovine serum albumin) at room temperature in a volume of 50 uL. Another 50 uL containing 5 uL of lyophilized platelets plus 1 uL of 0.1 U/uL of botrocetin in FACS buffer was added to aptamer/vWF. This reaction was allowed to proceed for 15 minutes at 37 degrees C. after which 200 uL of FACS buffer was added. Platelets were collected by a 6 minute spin at 1470 RCF and the supernatant was discarded. The pellets were resuspended in 100 uL of FACS buffer containing a 1:100 dilution of anti-vWF antibody and were incubated at room temperature for 30 minutes. After dilution with 200 uL of FACS buffer, the platelets were spun at 1470 RCF for 6 minutes and the supernatant was discarded. The pellets were resuspended in a 1:100 solution of anti-IgG2a-FITC antibody and were incubated in the dark for 30 minutes at room temperature. The entire 100 uL was diluted into 200 uL of FACS buffer and analyzed immediately by flow cytometric analysis in the FACSCAN. Artifactual data from contaminating debris was eliminated from the analysis by drawing a gate around the population of single and aggregated platelets. Mean fluorescent intensity (“MFI”) readings were quantified for each sample analyzed by flow cytometry. Background MFI was subtracted from all data points. Percent inhibition was reported by calculating the percent value of binding of full length human vWF to platelets in the presence of aptamer at a given concentration relative to binding in the absence of any aptamer (see FIG. 7). IC50 values were determined by fitting the percent inhibition of vWF binding to platelets as a function of aptamer concentration to the equation: % inhibition=% inhibitionmax/(1+IC50/aptamer conc.)

[3] = test system: rabbit vWF A1 domain (SEQ ID NO 6); experiment: 3-point dot blot screen, rabbit vWF A1 domain; assay type: binding; conditions: 3-point dot blot screen, 20 nM rabbit vWF A1 domain; ratio of fraction of aptamer bound with target protein to fraction bound without protein
In short: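 Rabbit vWF A1 domain binding was screened by dot blot using three conditions: no target protein, human vWF, and rabbit vWF A1 domain at 100 nM (20 nM in the screen run twice). Radiolabeled aptamer bound to nitrocellulose was quantified, and results are expressed as the ratio of bound fraction with protein to bound fraction without protein.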

full length human vWF = experiment: 3-point dot blot screen, full length human vWF; assay type: binding; conditions: 20 nM full length human vWF, ratio of fraction of aptamer bound with target protein to fraction bound without protein
Description: When a significant positive ratio of binding of DNA in the presence of human or rabbit vWF A1 domain versus in the absence of protein was seen, the pools were cloned using the TOPO TA cloning kit (Invitrogen Cat. #45-0641, Carlsbad, Calif.) according to the manufacturer's instructions. Round 7 and 11 pool templates were cloned and sequenced (218 total sequences), producing 146 unique clones within 12 sequence families of which sequences from six families show vWF target binding activity. All unique clones were assayed twice in a 3-point dot blot screen (no protein target control, 20 nM full length human vWF (Calbiochem Cat. #681300, La Jolla, Calif.), or 20 nM rabbit vWF A1 domain. The data is presented in the third and fourth columns of Table 17 below as the ratio of the fraction of the aptamer bound to the nitrocellulose in the presence of the target protein to the fraction of aptamer bound in the absence of the target protein.

[4] = read-out: Inhibition of full length hVWF binding in FACS assay, Average IC50
[5] = units in the cell: lower bound pM, upper bound nM, read-out: Inhibition of full length hVWF binding in FACS assay, IC50 range

Chain of rabbit vWF A1 domain (SEQ ID NO 6) (as listed by the source): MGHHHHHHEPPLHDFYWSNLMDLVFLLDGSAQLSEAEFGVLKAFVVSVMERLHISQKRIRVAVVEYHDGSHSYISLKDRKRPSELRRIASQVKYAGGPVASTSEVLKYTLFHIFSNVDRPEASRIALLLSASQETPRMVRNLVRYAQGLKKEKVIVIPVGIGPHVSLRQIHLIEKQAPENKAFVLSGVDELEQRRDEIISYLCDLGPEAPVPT

Molecule | Screen Rabbit/No Protein [3] | Screen- Human/No Protein (full length human vWF) | also measured
GGAGCCACACGACATTGGCGGGTTGTAATTACCACGCATGGCTCC (rGrGrArGdCdCrAdCrAdCrGrAdCrAdTdTrGrGdCrGrGrGdTdTrGdTrArAdTdTrAdCdCrAdCrGdCrAdTrGrGdCdTdCdC) [SEQ ID NO 189, minimized rRdY aptamer] | – | – | Kd [1]: 1 nM; IC50 [2, 4]: 1100 pM; IC50 [2, 5]: 564 to 1600 pM
GGAGCGCACTCAGCCACGGGGTGGGTAGACGGCGGGTATGTGGCT (chemistry not given here) [SEQ ID NO 177, minimized rRdY aptamer] | – | – | IC50 [2, 4]: 3000 pM
GGAGCGCACUCAGCCACCCUCGCAAGCAUUUUAAGAAUGACUUGUGCCGCUGGCU G (rGrGrArGfCrGfCrAfCfUfCrArGfCfCrAfCfCfCfUfCrGfCrArArGfCrAfUfUfUfUrArArGrArAfUrGrAfCfUfUrGfUrGfCfCrGfCfUrGrGfCfUrG) [SEQ ID NO 165, minimized rRfY aptamer] | – | – | IC50 [2, 4]: 6400 pM; IC50 [2, 5]: 562 to 14400 pM
GGAGCTCCAGTGTTTTATCTAATAACCGTGCGGTGCCTCCGTGAGCTCC (chemistry not given here) [SEQ ID NO 209, minimized DNA aptamer] | – | – | Inhibition of full length hVWF binding in FACS assay, IC50 range [2]: no activity
GGAGCTGCGGTTTGGTCGACGTCAGCTCC (DNA, backbone not given here) [SEQ ID NO 210, minimized DNA aptamer] | – | – | Inhibition of full length hVWF binding in FACS assay, IC50 range [2]: no activity
GGTAGCGACTCTGTGGAGCTGCGGTTTGG (DNA, backbone not given here) [SEQ ID NO 211, minimized DNA aptamer] | – | – | Inhibition of full length hVWF binding in FACS assay, IC50 range [2]: no activity
AMX238.F5: DNA SELEX 2 aptamer clone (nucleic acid, DNA, backbone not given here, DNA SELEX 2 aptamer clone) DNA: CTACCTACGATCTGACTAGCGGAATGAGAAGCTGGTGGATTGCTCAGGTCTGCTGGCTGCTTACTCTCATGTAGTTCC | 4.40 | 1.05 | –
AMX236.C1: DNA SELEX 2 aptamer clone (nucleic acid, DNA, backbone not given here, DNA SELEX 2 aptamer clone) CTACCTACGATCTGACTAGCGGAATGAGAATGTTGGTGGATTGCTCAGGTCTGCTGGCTGCTTACTCTCATGTAGTTCC | 3.28 | 1.03 | –
AMX236.C6: DNA SELEX 2 aptamer clone (nucleic acid, DNA, backbone not given here, DNA SELEX 2 aptamer clone) CTACCTACGATCTGACTAGCGGAATGAGAGTGCTGGTGGATTGCTCAGGTCTGCTGGCTGCTTACTCTCATGTAGTTCC | 5.77 | 1.06 | –
AMX238.A11: DNA SELEX 2 aptamer clone (nucleic acid, DNA, backbone not given here, DNA SELEX 2 aptamer clone) DNA: CTACCTACGATCTGACTAGCGGAATGAGAGTGTTGGTGGATTGCTCAGGTCTGCTGGCTGCTTACTCTCATGTAGTTCC | 4.54 | 0.85 | –
AMX237.C1: DNA SELEX 2 aptamer clone (nucleic acid, DNA, backbone not given here, DNA SELEX 2 aptamer clone) DNA: CTACCTACGATCTGACTAGCGGAATGAGGATGCTGGTGGATTGCTCAGGTCTGCTGGCTGCTTACTCTCATGTAGTTCC | 3.47 | 0.76 | –
AMX238.A6: DNA SELEX 2 aptamer clone (nucleic acid, DNA, backbone not given here, DNA SELEX 2 aptamer clone) DNA: CTACCTACGATCTGACTAGCGGAATGAGAATGCAGATGGATTGCTCAGGTCTGCTGGCTGCTTACTCTCATGTAGTTCC | 3.47 | 0.92 | –
AMX238.F6: DNA SELEX 2 aptamer clone (nucleic acid, DNA, backbone not given here, DNA SELEX 2 aptamer clone) DNA: CTACCTACGATCTGACTAGCGGAATGAGTATGCTGGTGGATTGCTCAGGTCTGCTGGCTGCTTACTCTCATGTAGTTCC | 5.36 | 1.18 | –
AMX236.E2: DNA SELEX 2 aptamer clone (nucleic acid, DNA, backbone not given here, DNA SELEX 2 aptamer clone) CTACCTACGATCTGACTAGCGGAATGAGTATGCTGATGGATTGCTCAGGTCTGCTGGCTGCTTACTCTCATGTAGTTCC | 3.59 | 0.93 | –
AMX237.B12: DNA SELEX 2 aptamer clone (nucleic acid, DNA, backbone not given here, DNA SELEX 2 aptamer clone) DNA: CTACCTACGATCTGACTAGCGGAATGAGAATGCAGGTGGATTGCTCAGGTCTGCTGGCTGCTTACTCTCATGTAGTTCC | 4.67 | 1.13 | –
AMX236.A11: DNA SELEX 2 aptamer clone (nucleic acid, DNA, backbone not given here, DNA SELEX 2 aptamer clone) CTACCTACGATCTGACTAGCTTGGTAGCGACTCTGTGGAGCTGCGGTCTGGCCGACGTCAGCTTACTCTCATGTAGTTCC | 2.02 | 2.02 | –
AMX237.H8: DNA SELEX 2 aptamer clone (nucleic acid, DNA, backbone not given here, DNA SELEX 2 aptamer clone) DNA: CTACCTACGATCTGACTAGCTTGGTAGCGACTTTGTGGAGCTGCGGTTTGGTCGACATCAGCTTACTCTCATGTAGTTCC | 1.41 | 1.21 | –
AMX236.G4: DNA SELEX 2 aptamer clone (nucleic acid, DNA, backbone not given here, DNA SELEX 2 aptamer clone) CTACCTACGATCTGACTAGCTTGGTAGCGACTTTGTGGAGATGCGGTTTGGTTGACGTCAGCTTACTCTCATGTAGTTCC | 1.72 | 1.70 | –
AMX237.H10: DNA SELEX 2 aptamer clone (nucleic acid, DNA, backbone not given here, DNA SELEX 2 aptamer clone) DNA: CTACCTACGATCTGACTAGCTTGGTAGCGACTCAGAGGAGCTGCGGTTTGGTCGACGTCAGCTTACTCTCATGTAGTTCC | 1.94 | 1.71 | –
AMX236.C12: DNA SELEX 2 aptamer clone (nucleic acid, DNA, backbone not given here, DNA SELEX 2 aptamer clone) CTACCTACGATCTGACTAGCTTGGTAGCGACTCCGTGGAGCTGCGGTTTGGTCGACGTCAGCTTACTCTCATGTAGTTCC | 2.24 | 1.99 | –
AMX236.E6: DNA SELEX 2 aptamer clone (nucleic acid, DNA, backbone not given here, DNA SELEX 2 aptamer clone) CTACCTACGATCTGACTAGCTTGGTAGCGACCCTGTGGAGCTGCGGTTTGGTCGACGTCAGCTTACTCTCATGTAGTTCC | 1.49 | 1.31 | –
AMX237.D5: DNA SELEX 2 aptamer clone (nucleic acid, DNA, backbone not given here, DNA SELEX 2 aptamer clone) DNA: CTACCTACGATCTGACTAGCTTGGTAGCGACACTGTGGAGCTGCGGTTTGGTTGACGTCAGCTTACTCTCATGTAGTTCC | 1.48 | 1.41 | –
AMX.236.G1 (nucleic acid, DNA, backbone and methylation of C not given here) CTACCTACGATCTGACTAGCCTCAGATTGACTCCGGCTGACTTGTTTTAATCTTCTGAGTGCTTACTCTCATGTAGTTCC | – | – | IC50 [2, 4]: 46000 pM
